Laboratory results taken from patent US20100009014A1, “Use of composition for manufacture of medicant and method for inhibiting formation of body fat” (Maxluck Biotechnology Corp., priority 2008, published 2010).

Test: Epididymal fat weight and body weight, lactoferrin vs trivalent chromium vs combination (Test Example 5)
Format: in vivo, C57BL/6JNarl mice
Conditions: fed 7 weeks; for Body weight / Epididymal fat weight: high-fat diet
Method: The C57BL/6JNarl mice (N=70) are fed with a mouse diet (high-fat Rodent TestDiet, PMI Nutrition International Inc., MO, U.S.A.; 67% of calories provided by fat). The C57BL/6JNarl mice are randomly divided into seven groups and there are ten mice in each group. In one experimental group, the mice are fed with the mouse diet mixed with lactoferrin (NZMP lactoferrin, New Zealand, low dose: 40 mg/kg BW/day, high dose: 80 mg/kg BW/day). In another experimental group, the mice are fed with the mouse diet mixed with trivalent chromium (chromium (III) chloride hexahydrate, low dose: 40 μg/kg BW/day Cr^3+, high dose: 80 μg/kg BW/day Cr^3+). In yet another experimental group, the mice are fed with the mouse diet mixed with a lactoferrin/trivalent chromium composition (low dose: lactoferrin of 40 mg/kg BW/day with Cr^3+ of 40 μg/kg BW/day, high dose: lactoferrin of 80 mg/kg BW/day with Cr^3+ of 80 μg/kg BW/day). In the control group, the mice are fed with the mouse diet containing no other additive. The C57BL/6JNarl mice aged 8 weeks are fed for 7 weeks and then sacrificed to measure the weight of Epididymal fat and body weight, as shown in Table 5.
Accordingly, it can be known that the lactoferrin/trivalent chromium composition provides more significant efficiency in comparison to single lactoferrin or trivalent chromium.

[1] = High dose (lactoferrin 80 mg/kg BW/day and/or Cr3+ 80 μg/kg BW/day)
[2] = Low dose (lactoferrin 40 mg/kg BW/day and/or Cr3+ 40 μg/kg BW/day)

B1: Lactoferrin: NZMP lactoferrin, New Zealand; glycoprotein capable of binding metal ions, given alone as comparison (protein, UniProt P24627 20-708, looked up)
Lactotransferrin: APRKNVRWCTISQPEWFKCRRWQWRMKKLGAPSITCVRRAFALECIRAIAEKKADAVTLDGGMVFEAGRDPYKLRPVAAEIYGTKESPQTHYYAVAVVKKGSNFQLDQLQGRKSCHTGLGRSAGWIIPMGILRPYLSWTESLEPLQGAVAKFFSASCVPCIDRQAYPNLCQLCKGEGENQCACSSREPYFGYSGAFKCLQDGAGDVAFVKETTVFENLPEKADRDQYELLCLNNSRAPVDAFKECHLAQVPSHAVVARSVDGKEDLIWKLLSKAQEKFGKNKSRSFQLFGSPPGQRDLLFKDSALGFLRIPSKVDSALYLGSRYLTTLKNLRETAEEVKARYTRVVWCAVGPEEQKKCQQWSQQSGQNVTCATASTTDDCIVLVLKGEADALNLDGGYIYTAGKCGLVPVLAENRKSSKHSSLDCVLRPTEGYLAVAVVKKANEGLTWNSLKDKKSCHTAVDRTAGWNIPMGLIVNQTGSCAFDEFFSQSCAPGADPKSRLCALCAGDDQGLDKCVPNSKEKYYGYTGAFRCLAEDVGDVAFVKNDTVWENTNGESTADWAKNLNREDFRLLCLDGTRKPVTEAQSCHLAVAPNHAVVSRSDRAAHVKQVLLHQQALFGKNGKNCPDKFCLFKSETKNLLFNDNTECLAKLGGRPTYEEYLGTEYVTAIANLKKCSTSPLLEACAFLTR
Body weight [1]: 27.9 ± 1.37 g
Epididymal fat weight [1]: 0.82 ± 0.2 g
Body weight [2]: 27.7 ± 2.19 g
Epididymal fat weight [2]: 0.72 ± 0.28 g
Epididymal fat weight and body weight vs control group (in words): cannot achieve significant efficiency
